Measurements taken from paper PMC9905591, “A single point mutation expands the applicability of ostreolysin A6 in biomedicine” (Scientific Reports, 2023).

Biological target: T1, OlyA6 mutant E69A (Pleurotus ostreatus, UniProt P83467 1-138, E69A)
T1 sequence: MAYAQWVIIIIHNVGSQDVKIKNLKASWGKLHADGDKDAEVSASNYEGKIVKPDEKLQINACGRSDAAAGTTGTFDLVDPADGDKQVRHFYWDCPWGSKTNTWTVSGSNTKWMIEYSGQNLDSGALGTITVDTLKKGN
Test: cell-based or functional assay

B1: Δ48PlyB (pleurotolysin B) (domain or fragment, Pleurotus ostreatus, UniProt Q5W9E8 49-523, looked up)
chain: SQAGDTLNDVIQDPTRRNKLINDNNLLKGIIMGRDGPVPSSRELIVRPDTLRAIINNRATIETTTMEAEFTETLMESNYNSASVKVSAPFITANSEYSESSSFKNTETEKSMYTSSRYLFPQGRIDFTTPDSGFDDVIKLSPQFTSGVQAALAKATGTEKREALQNLFQEYGHVFRTKVHIGGVLSAHTMETFSRSENETEVKQDVKAGLEGAVKGWGGGATAGHGNTQGTITTSQNRKLNVKYIVNGGDYTKIQNTEEWVASTNQSEHWRVIEVTEVTAVADLLPQPIRGQVKDLLKPLLGKWVDVEKVPGLESLPVSVYRPKGAIPAGWFWLGDTADASKALLVKPTLPARSGRNPALTSLHQGSGMTEQPFVDLPQYQYLSTYFGSFAHDTPPGSTLRGLRPDHVLPGRYEMHGDTISTAVYVTRPVDVPFPEDECFDLKSLVRVKLPGSGNPPKPRSALKKSMVLFDSGEK
In the case of B1, the “hazard ratio against buffer, Kaplan-Meier survival of Colorado potato beetle larvae on E69A/PlyB-treated leaf discs” value is reported as 2.76.
